IC50, in vitro pseudovirus neutralization data for two substances are collected here from US12173052B2.

The target in test [1] is V5 variants (YU-2 gp120, residues 458gp120 and 459gp120).
Test [2] has as its target loop D variants (YU-2 gp120, residues 279gp120 and 280gp120).

Turning to 45-46m7 (45-46m2+HC W47V) (antibody), the figures for the IC50, in vitro pseudovirus neutralization in test [1] and in test [2] were less than 0.01 µg/mL and more than 0.1 µg/mL, respectively.
Regarding NIH45-46^G54W(HC)S28Y(LC) (antibody), the IC50, in vitro pseudovirus neutralization in test [1] was less than 0.01 µg/mL; in test [2], more than 0.1 µg/mL.
